Results from patent publication US20160264649A1.

Assays:
Experiment in all cases: cell-based or functional assay
[1] = molecular target: HIV-1 MGRM-F1-006 Env (HIV-1)
[2] = molecular target: HIV-1 MGRM-G-009 Env (HIV-1)
[3] = molecular target: HIV-1 MGRM-F1-015 Env (HIV-1)
[4] = molecular target: HIV-1 MGRM-AE-004 Env (HIV-1)
[5] = molecular target: HIV-1 MGRM-D-029 Env (HIV-1)
[6] = molecular target: HIV-1 MGRM-F1-014 Env (HIV-1)
[7] = molecular target: HIV-1 98IN022 Env on pseudovirus (HIV-1)
HIV-1 APV-13 Env (HIV-1) = molecular target: HIV-1 APV-13 Env (HIV-1)
[8] = molecular target: HIV-1 MGRM-G-013 Env (HIV-1)
[9] = molecular target: HIV-1 MGRM-F1-018 Env (HIV-1)
[10] = molecular target: HIV-1 MGRM-G-011 Env (HIV-1)
[11] = molecular target: HIV-1 MGRM-C-002 Env on pseudovirus (HIV-1)
[12] = molecular target: HIV-1 92UG005 Env (HIV-1)
[13] = molecular target: HIV-1 MGRM-AG-012 Env (HIV-1)
[14] = molecular target: HIV-1 MGRM-C-001 Env on pseudovirus (HIV-1)
[15] = molecular target: HIV-1 IAVI-C22 Env (HIV-1)
[16] = molecular target: HIV-1 TRO.11 (Acute) Env on pseudovirus (HIV-1)
[17] = molecular target: aMLV envelope (negative control pseudovirus)
[18] = molecular target: HIV-1 MGRM-G-015 Env (HIV-1)
aMLV envelope = molecular target: aMLV envelope
[19] = molecular target: HIV-1 MGRM-Chronic-B-004 Env on pseudovirus (HIV-1)
[20] = molecular target: HIV-1 LAVIC_18 Env on pseudovirus (HIV-1)
[21] = molecular target: HIV-1 MGRM-D-014 Env (HIV-1)
[22] = molecular target: HIV-1 MGRM-C-025 Env on pseudovirus (HIV-1)
[23] = molecular target: HIV-1 MGRM-F1-022 Env (HIV-1)
[24] = molecular target: HIV-1 MGRM-C-008 Env on pseudovirus (HIV-1)
[25] = molecular target: HIV-1 MGRM-C-020 Env on pseudovirus (HIV-1)
[26] = molecular target: HIV-1 MGRM-D-020 Env (HIV-1)
[27] = molecular target: HIV-1 MGRM-F1-004 Env (HIV-1)
[28] = molecular target: HIV-1 MGRM-D-011 Env (HIV-1)
[29] = molecular target: HIV-1 94UG103 Env (HIV-1)
[30] = molecular target: HIV-1 MGRM-F1-012 Env (HIV-1)
[31] = molecular target: HIV-1 MGRM-D-008 Env (HIV-1)
[32] = molecular target: HIV-1 MGRM-D-024 Env (HIV-1)
[33] = molecular target: HIV-1 MGRM-C-017 Env on pseudovirus (HIV-1)
[34] = molecular target: HIV-1 92TH021 Env (HIV-1)
[35] = molecular target: HIV-1 MGRM-G-014 Env (HIV-1)
[36] = molecular target: HIV-1 NL43 Env on pseudovirus (HIV-1)
[37] = molecular target: HIV-1 IAVI-C3 Env (HIV-1)
[38] = molecular target: HIV-1 MGRM-C-019 Env on pseudovirus (HIV-1)
HIV-1 NL43 Env (HIV-1) = molecular target: HIV-1 NL43 Env (HIV-1)
[39] = molecular target: HIV-1 SC422661.8 (Acute) Env on pseudovirus (HIV-1)
[40] = molecular target: HIV-1 MGRM-C-009 Env on pseudovirus (HIV-1)
[41] = molecular target: HIV-1 APV_13 Env on pseudovirus (HIV-1)
[42] = molecular target: HIV-1 MGRM-G-017 Env (HIV-1)
[43] = molecular target: HIV-1 98CN009 Env on pseudovirus (HIV-1)
[44] = molecular target: HIV-1 MGRM-C-023 Env on pseudovirus (HIV-1)
[45] = molecular target: HIV-1 6535.3 (Acute) Env on pseudovirus (HIV-1)
[46] = molecular target: HIV-1 QH0692.42 (Acute) Env on pseudovirus (HIV-1)
[47] = molecular target: HIV-1 JRFL Env on pseudovirus (HIV-1)
[48] = molecular target: HIV-1 98CN006 Env on pseudovirus (HIV-1)

1495_C14 (PGC14) (antibody)
43 µg/mL: IC50 [43]
48 µg/mL: IC50 (µg/ml), pseudovirus neutralization [21]
> 50 µg/mL: IC50 (pseudovirus neutralization) [1] | IC50 (µg/ml), pseudovirus neutralization [2] | IC50 (pseudovirus neutralization) [3] | IC50 (µg/ml), pseudovirus neutralization [4] | IC50 (µg/ml), pseudovirus neutralization [5] | IC50 (pseudovirus neutralization) [6] | neutralization IC50 (HIV-1 APV-13 Env (HIV-1)) | IC50 (µg/ml), pseudovirus neutralization [8] | IC50 (pseudovirus neutralization) [9] | IC50 (µg/ml), pseudovirus neutralization [10] | IC50 [11] | IC50 (µg/ml), pseudovirus neutralization [12] | neutralization IC50 [12] | IC50 (µg/ml), pseudovirus neutralization [13] | IC50 [14] | IC50 [16] | IC50 (pseudovirus neutralization) [17] | IC50 (µg/ml), pseudovirus neutralization [18] | neutralization IC50 (aMLV envelope) | IC50 [19] | IC50 [20] | IC50 [22] | IC50 (pseudovirus neutralization) [23] | IC50 [24] | IC50 [25] | IC50 (µg/ml), pseudovirus neutralization [26] | IC50 (pseudovirus neutralization) [27] | IC50 (µg/ml), pseudovirus neutralization [28] | neutralization IC50 [29] | IC50 (pseudovirus neutralization) [30] | IC50 (µg/ml), pseudovirus neutralization [31] | IC50 (µg/ml), pseudovirus neutralization [32] | IC50 [33] | IC50 (µg/ml), pseudovirus neutralization [34] | neutralization IC50 [34] | IC50 (µg/ml), pseudovirus neutralization [35] | neutralization IC50 [37] | IC50 [39] | IC50 [40] | IC50 [41] | IC50 (µg/ml), pseudovirus neutralization [42] | IC50 [44] | IC50 [46] | IC50 [47] | IC50 [48]
9 µg/mL: IC50 [7]
9.5 µg/mL: neutralization IC50 [15]
35 µg/mL: IC50 [45]
12 µg/mL: IC50 [38]
0.373 µg/mL: neutralization IC50 (HIV-1 NL43 Env (HIV-1))
40 µg/mL: IC50 [36]

b12 (antibody)
13.9 µg/mL: IC50 [44]
1.93 µg/mL: IC50 [45]
10.4 µg/mL: IC50 (µg/ml), pseudovirus neutralization [13]
1.51 µg/mL: IC50 [24]
3.6 µg/mL: neutralization IC50 [15]
29.6 µg/mL: neutralization IC90 [15]
0.17 µg/mL: IC50 [36]
> 50 µg/mL: IC50 (pseudovirus neutralization) [1] | IC50 (µg/ml), pseudovirus neutralization [2] | IC50 (pseudovirus neutralization) [3] | IC50 (µg/ml), pseudovirus neutralization [4] | IC50 (µg/ml), pseudovirus neutralization [5] | IC50 (pseudovirus neutralization) [6] | neutralization IC90 (HIV-1 APV-13 Env (HIV-1)) | IC50 (µg/ml), pseudovirus neutralization [8] | IC50 (pseudovirus neutralization) [9] | IC50 (µg/ml), pseudovirus neutralization [10] | IC50 [11] | IC50 (µg/ml), pseudovirus neutralization [12] | neutralization IC50 [12] | neutralization IC90 [12] | IC50 [14] | IC50 [16] | IC50 (pseudovirus neutralization) [17] | IC50 (µg/ml), pseudovirus neutralization [18] | neutralization IC50 (aMLV envelope) | neutralization IC90 (aMLV envelope) | IC50 [20] | IC50 (µg/ml), pseudovirus neutralization [21] | IC50 [22] | IC50 (pseudovirus neutralization) [23] | IC50 [25] | IC50 (µg/ml), pseudovirus neutralization [26] | IC50 (pseudovirus neutralization) [27] | IC50 (pseudovirus neutralization) [30] | IC50 (µg/ml), pseudovirus neutralization [31] | IC50 [33] | neutralization IC90 [34] | IC50 (µg/ml), pseudovirus neutralization [35] | IC50 [38] | IC50 [40] | IC50 [41] | IC50 (µg/ml), pseudovirus neutralization [42] | IC50 [48]
0.28 µg/mL: neutralization IC90 (HIV-1 NL43 Env (HIV-1))
0.42 µg/mL: IC50 [7]
7.75 µg/mL: IC50 (µg/ml), pseudovirus neutralization [28]
47.3 µg/mL: neutralization IC90 [29]
5.92 µg/mL: IC50 (µg/ml), pseudovirus neutralization [32]
1.52 µg/mL: IC50 [43]
6.11 µg/mL: IC50 [39]
3.54 µg/mL: neutralization IC50 [29]
0.06 µg/mL: neutralization IC50 (HIV-1 NL43 Env (HIV-1))
> 25 µg/mL: neutralization IC50 (HIV-1 APV-13 Env (HIV-1))
0.02 µg/mL: IC50 [47]
5 µg/mL: neutralization IC50 [37]
9.99 µg/mL: neutralization IC50 [34]
0.73 µg/mL: IC50 [46]
0.26 µg/mL: IC50 [19]
